In data set [1] the target is T1, Thrombomodulin (TM) expressed on COS cells (human, UniProt P07204 19-575).
T1 construct: Thrombomodulin; cDNA isolated from expression libraries of HUVECs and EA.hy926 cells; Also used as the target of the functional rows on HUVECs (endogenous TM there); source: COS cells, transfected, on cells
As to the kind of experiment: cell-surface binding assay (alkaline phosphatase-conjugated anti-human Fc, OD405); COS cells transfected with TM in 48-well plates, varying concentrations of FD-Fc in PBS/10% calf serum, 30 minutes at room temperature; specific binding = TM-transfected minus empty vector; apparent affinities. Particulars: one partner purified.

The target of data set [2] is T2, soluble extracellular domain of human TM (human, UniProt P07204 19-515).
T2 construct: Thrombomodulin, human, soluble extracellular domain; also called soluble TM; source: bought: R&D Systems
T2 sequence (P07204 19-515): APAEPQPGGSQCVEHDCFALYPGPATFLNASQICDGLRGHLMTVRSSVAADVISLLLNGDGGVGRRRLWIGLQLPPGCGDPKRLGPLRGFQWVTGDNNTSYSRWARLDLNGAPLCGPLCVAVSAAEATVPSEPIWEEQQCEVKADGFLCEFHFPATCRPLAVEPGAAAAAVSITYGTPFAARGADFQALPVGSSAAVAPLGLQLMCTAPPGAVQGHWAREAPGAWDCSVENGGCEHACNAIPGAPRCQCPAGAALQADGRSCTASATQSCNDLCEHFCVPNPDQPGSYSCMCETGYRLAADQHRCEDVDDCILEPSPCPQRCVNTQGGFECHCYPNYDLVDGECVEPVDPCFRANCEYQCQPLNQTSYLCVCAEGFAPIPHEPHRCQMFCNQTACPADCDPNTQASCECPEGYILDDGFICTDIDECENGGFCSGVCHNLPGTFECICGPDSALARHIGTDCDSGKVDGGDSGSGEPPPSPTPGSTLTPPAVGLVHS
As to the kind of experiment: pull-down; 100 nM His-tagged TM extracellular domain with 5 nM thrombin and 0.25, 0.5 or 1.0 uM native Ang1, Ang2 or Ang4 (control), 60 minutes on ice, 0.15 M NaCl, 20 mM Tris pH 7.5, 0.1% Triton X-100, 2 mM CaCl2, 1 mg/ml BSA; TM collected on Ni-NTA beads, western blot. Particulars: both partners purified.

T1 sequence (P07204 19-575): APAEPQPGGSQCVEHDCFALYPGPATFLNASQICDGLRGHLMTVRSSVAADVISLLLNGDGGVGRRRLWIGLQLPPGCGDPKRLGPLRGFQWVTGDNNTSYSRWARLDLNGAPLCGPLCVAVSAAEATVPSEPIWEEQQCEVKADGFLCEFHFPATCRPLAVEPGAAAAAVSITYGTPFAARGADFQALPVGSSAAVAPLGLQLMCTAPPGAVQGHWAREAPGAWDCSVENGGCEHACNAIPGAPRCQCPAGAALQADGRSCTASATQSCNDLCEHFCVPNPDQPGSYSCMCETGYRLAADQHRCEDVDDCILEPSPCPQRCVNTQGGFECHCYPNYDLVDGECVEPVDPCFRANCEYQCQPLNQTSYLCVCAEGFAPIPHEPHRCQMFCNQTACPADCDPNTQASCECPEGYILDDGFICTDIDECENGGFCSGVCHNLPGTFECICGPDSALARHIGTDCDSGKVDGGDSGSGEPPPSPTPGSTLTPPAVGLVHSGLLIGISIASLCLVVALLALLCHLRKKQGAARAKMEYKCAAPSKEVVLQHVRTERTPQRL

B1: Ang2-FD-Fc (Fc fusion, human, UniProt O15123-3 19-495, looked up)
chain: KEEQISFRDCAEVFKSGHTTNGIYTLTFPNSTEEIKAYCDMEAGGGGWTIIQRREDGSVDFQRTWKEYKVGFGNPSGEYWLGNEFVSQLTNQQRYVLKIHLKDWEGNEAYSLYEHFYLSSEELNYRIHLKGLTGTAGKISSISQPGNDFSTKDGDNDKCICKCSQMLTGGWWFDACGPSNLNGMYYPQRQNTNKFNGIKWYYWKGSGYSLKATTMMIRPADF
notes: Angiopoietin-2 (Ang2, ANGPT2), fibrinogen-like domain (FD); Detected with anti-human Fc
Turning to B1, the Kd in data set [1] was roughly 0.0083 µM.

B2: native human Ang1 (ligand, UniProt Q15389 16-498, looked up)
chain: HIGCSNQRRSPENSGRRYNRIQHGQCAYTFILPEHDGNCRESTTDQYNTNALQRDAPHVEPDFSSQKLQHLEHVMENYTQWLQKLENYIVENMKSEMAQIQQNAVQNHTATMLEIGTSLLSQTAEQTRKLTDVETQVLNQTSRLEIQLLENSLSTYKLEKQLLQQTNEILKIHEKNSLLEHKILEMEGKHKEELDTLKEEKENLQGLVTRQTYIIQELEKQLNRATTNNSVLQKQQLELMDTVHNLVNLCTKEGVLLKGGKREEEKPFRDCADVYQAGFNKSGIYTIYINNMPEPKKVFCNMDVNGGGWTVIQHREDGSLDFQRGWKEYKMGFGNPSGEYWLGNEFIFAITSQRQYMLRIELMDWEGNRAYSQYDRFHIGNEKQNYRLYLKGHTGTAGKQSSLILHGADFSTKDADNDNCMCKCALMLTGGWWFDACGPSNLNGMFYTAGQNHGKLNGIKWHYFKGPSYSLRSTTMMIRPLDF
notes: Angiopoietin-1, human, 'native' as against the chimeric FD forms; also called Angiopoietin-1; source: bought: R&D Systems
As for B2, the binding result in data set [2] was “binds”.

B3: native human Ang2 (ligand, UniProt O15123-3 19-495, looked up)
chain: YNNFRKSMDSIGKKQYQVQHGSCSYTFLLPEMDNCRSSSSPYVSNAVQRDAPLEYDDSVQRLQVLENIMENNTQWLMKLENYIQDNMKKEMVEIQQNAVQNQTAVMIEIGTNLLNQTAEQTRKLTDVEAQVLNQTTRLELQLLEHSLSTNKLEKQILDQTSEINKLQDKNSFLEKKVLAMEDKHIIQLQSIKEEKDQLQVLVSKQNSIIEELEKKIVTATVNNSVLQKQQHDLMETVNNLLTMMSTSNSKDPTVAKEEQISFRDCAEVFKSGHTTNGIYTLTFPNSTEEIKAYCDMEAGGGGWTIIQRREDGSVDFQRTWKEYKVGFGNPSGEYWLGNEFVSQLTNQQRYVLKIHLKDWEGNEAYSLYEHFYLSSEELNYRIHLKGLTGTAGKISSISQPGNDFSTKDGDNDKCICKCSQMLTGGWWFDACGPSNLNGMYYPQRQNTNKFNGIKWYYWKGSGYSLKATTMMIRPADF
notes: Angiopoietin-2, human, 'native' as against the chimeric FD forms; also called Angiopoietin-2; source: bought: R&D Systems
For the molecule B3, the “percent inhibition of thrombin/TM complex formation at 1 uM Ang2” value in data set [2] is roughly 80%.

B4: Ang1-FD-Fc (Fc fusion, human, UniProt Q15389 277-498, looked up)
chain: REEEKPFRDCADVYQAGFNKSGIYTIYINNMPEPKKVFCNMDVNGGGWTVIQHREDGSLDFQRGWKEYKMGFGNPSGEYWLGNEFIFAITSQRQYMLRIELMDWEGNRAYSQYDRFHIGNEKQNYRLYLKGHTGTAGKQSSLILHGADFSTKDADNDNCMCKCALMLTGGWWFDACGPSNLNGMFYTAGQNHGKLNGIKWHYFKGPSYSLRSTTMMIRPLDF
notes: Used at 1 ug/ml in the screen; also called fibrinogen-like domain (FD) of Ang1 fused to a human Fc tag
Regarding B4, in data set [1], the Kd is roughly 0.088 µM.

Values taken from paper PMC5765006, “Angiopoietins bind thrombomodulin and inhibit its function as a thrombin cofactor” (Scientific Reports, 2018).
